Values quoted from earlier work in patent publication US6964771B1, “Method for stably incorporating substances within dry, foamed glass matrices” (Elan Drug Delivery Limited, priority 1995, dated 2005).

Conditions: as delivered, dosage of 300 μg

B1: Neupogen®: biopharmaceutical delivered at a dosage of 300 μg (protein, chains of the INN, looked up)
chain: MTPLGPASSLPQSFLLKCLEQVRKIQGDGAALQEKLCATYKLCHPEELVLLGHSLGIPWAPLSSCPSQALQLAGCLSQLHSGLFLYQGLLQALEGISPELGPTLDTLQLDVADFATTIWQQMEELGMAPALQPTQGAMPAFASAFQRRAGGVLVASHLQSFLEVSYRVLRHLAQP
In the case of B1, the specific activity is given as 1±0.6×10^8 U/mg.
